Assay results: publication PMC7725843, “Structural and biochemical analyses of an aminoglycoside 2′-N-acetyltransferase from Mycolicibacterium smegmatis” (Scientific Reports, 2020)

Target: the molecule itself
Assay: AUC; analytical ultracentrifugation of apo-AAC(2′)-Id; 20 mM Tris-HCl (pH 8.0), 150 mM NaCl, 293 K, 40,000 rpm, monitored at 280 nm, SEDFIT

B1: Aminoglycoside 2′-N-acetyltransferase from Mycolicibacterium smegmatis [AAC(2′)-Id] (enzyme)
chain: MLTQHVSEARTRGAIHTARLIHTSDLDQETRDGARRMVIEAFRDPSGDSDFTDDFTDDDWDHALGGMHALISHHGALIAHGAVVQRRLMYRGPDGRGHALRCGYVEAVAVREDRRGDGLGTAVLDALEQVIRGAYQIGALSASDIARPMYIARGWLSWEGPTSVLTPTEGIVRTPEDDRSLFVLPVDLPDGLELDTAREITCDWRSGDPW
notes: also called apo-AAC(2′)-Id; AAC(2′) from M. smegmatis; source: E. coli BL21(DE3), purified (Ni-NTA, Q-Sepharose, thrombin cleavage, Superdex 200); not shown: His-tag, N-terminal, cleaved
For B1, the “stoichiometry N” value was 2.
